The results in this text go back to patent US20170298096A1 (CANIMGUIDE THERAPEUTICS, published 2017).

The target of this test is T1, His-tagged P3028 (human, not fully specified).
T1 construct: the tag is put first after 'PGE73=His-tag-P3028'; also called PGE73; not shown: His-tag
T1 peptide: {His‑tag}-VFDEFKPLVEEPQNLIK
Put plainly: chip ELISA.

No end group written: not given here.

B1: P28R D4E (peptide)
peptide: KKLETFFVKLSLFTER
B1: the ELISA signal amounted to 417.

B2: P28R D4N (peptide)
peptide: KKLNTFFVKLSLFTER
In the case of B2, the ELISA signal worked out at 296.

B3: P28R F6K (peptide)
peptide: KKLDTKFVKLSLFTER
Regarding B3, the ELISA signal turned out to be 309.

B4: P28R E15Q (peptide)
peptide: KKLDTFFVKLSLFTQR
B4 had an ELISA signal of 344.

B5: P28R F6H (peptide)
peptide: KKLDTHFVKLSLFTER
The molecule B5 had an ELISA signal of 332.

B6: P28R D4H (peptide)
peptide: KKLHTFFVKLSLFTER
Take B6: the ELISA signal is 317.

B7: P28R F6A (peptide)
peptide: KKLDTAFVKLSLFTER
Molecule B7 had an ELISA signal of 575.

B8: P28R E15F (peptide)
peptide: KKLDTFFVKLSLFTFR
The molecule B8 had an ELISA signal of 137.

B9: P28R F7N (peptide)
peptide: KKLDTFNVKLSLFTER
With B9, the ELISA signal amounted to 348.

B10: P28R D4K (peptide)
peptide: KKLKTFFVKLSLFTER
B10 displayed an ELISA signal of 274.

B11: P28R D4Y (peptide)
peptide: KKLYTFFVKLSLFTER
On to B11, for which the ELISA signal turned out to be 422.

B12: P28R F7A (peptide)
peptide: KKLDTFAVKLSLFTER
For B12, the ELISA signal is 426.

B13: P28R E15V (peptide)
peptide: KKLDTFFVKLSLFTVR
Regarding B13, the ELISA signal is 163.

B14: P28R D4F (peptide)
peptide: KKLFTFFVKLSLFTER
Molecule B14 returned an ELISA signal of 380.

B15: P28R E15H (peptide)
peptide: KKLDTFFVKLSLFTHR
Consider B15, for which the ELISA signal was determined as 318.

B16: P28R F13A (peptide)
peptide: KKLDTFFVKLSLATER
In turn, B16 displayed an ELISA signal of 525.

B17: P28R F6W (peptide)
peptide: KKLDTWFVKLSLFTER
Molecule B17 gave an ELISA signal of 348.

B18: P28R F6D (peptide)
peptide: KKLDTDFVKLSLFTER
B18 gave an ELISA signal of 193.

B19: P28R D4L (peptide)
peptide: KKLLTFFVKLSLFTER
Molecule B19 came in with an ELISA signal of 303.

B20: P28R E15A (peptide)
peptide: KKLDTFFVKLSLFTAR
The molecule B20 came in with an ELISA signal of 174.

B21: P28R F6Q (peptide)
peptide: KKLDTQFVKLSLFTER
Turning to B21, the ELISA signal was 410.

B22: P28R E15W (peptide)
peptide: KKLDTFFVKLSLFTWR
For B22, the ELISA signal turned out to be 226.

B23: P28R F6S (peptide)
peptide: KKLDTSFVKLSLFTER
In turn, B23 returned an ELISA signal of 432.

B24: P28R F7H (peptide)
peptide: KKLDTFHVKLSLFTER
The molecule B24 showed an ELISA signal of 364.

B25: P28R F6I (peptide)
peptide: KKLDTIFVKLSLFTER
Turning to B25, the ELISA signal came out at 466.

B26: P28R F6V (peptide)
peptide: KKLDTVFVKLSLFTER
B26 returned an ELISA signal of 547.

B27: P28R F6L (peptide)
peptide: KKLDTLFVKLSLFTER
On to B27, for which the ELISA signal was found to be 408.

B28: P28R D4I (peptide)
peptide: KKLITFFVKLSLFTER
B28 displayed an ELISA signal of 430.

B29: P28R E15L (peptide)
peptide: KKLDTFFVKLSLFTLR
On to B29, for which the ELISA signal is 246.

B30: P28R E15K (peptide)
peptide: KKLDTFFVKLSLFTKR
B30 showed an ELISA signal of 324.

B31: P28R D4S (peptide)
peptide: KKLSTFFVKLSLFTER
As for B31, the ELISA signal is 344.

B32: P28R F7T (peptide)
peptide: KKLDTFTVKLSLFTER
As to B32, the ELISA signal is 517.

B33: P28R F7S (peptide)
peptide: KKLDTFSVKLSLFTER
In the case of B33, the ELISA signal was found to be 700.

B34: P28R F7M (peptide)
peptide: KKLDTFMVKLSLFTER
In turn, B34 had an ELISA signal of 712.

B35: P28R E15R (peptide)
peptide: KKLDTFFVKLSLFTRR
In the case of B35, the ELISA signal was 237.

B36: P28R F7I (peptide)
peptide: KKLDTFIVKLSLFTER
The molecule B36 had an ELISA signal of 446.

B37: P28R F13D (peptide)
peptide: KKLDTFFVKLSLDTER
B37: the ELISA signal turned out to be 112.

B38: P28R F7Q (peptide)
peptide: KKLDTFQVKLSLFTER
As to B38, the ELISA signal stood at 511.

B39: P28R F7L (peptide)
peptide: KKLDTFLVKLSLFTER
On to B39, for which the ELISA signal amounted to 517.

B40: P28R F6N (peptide)
peptide: KKLDTNFVKLSLFTER
Regarding B40, the ELISA signal was determined as 446.

B41: P28R F7V (peptide)
peptide: KKLDTFVVKLSLFTER
As for B41, the ELISA signal is 527.

B42: P28R E15S (peptide)
peptide: KKLDTFFVKLSLFTSR
Molecule B42 displayed an ELISA signal of 165.

B43: P28R E15D (peptide)
peptide: KKLDTFFVKLSLFTDR
Regarding B43, the ELISA signal was 404.

B44: P28R F7R (peptide)
peptide: KKLDTFRVKLSLFTER
Molecule B44 had an ELISA signal of 369.

B45: P28R F7K (peptide)
peptide: KKLDTFKVKLSLFTER
The molecule B45 had an ELISA signal of 232.

B46: P28R D4R (peptide)
peptide: KKLRTFFVKLSLFTER
On to B46, for which the ELISA signal was 317.

B47: P28R F7E (peptide)
peptide: KKLDTFEVKLSLFTER
B47: the ELISA signal was found to be 381.

B48: P28R F6Y (peptide)
peptide: KKLDTYFVKLSLFTER
With B48, the ELISA signal is 364.

B49: P28R E15I (peptide)
peptide: KKLDTFFVKLSLFTIR
B49 yielded an ELISA signal of 163.

B50: P28R D4M (peptide)
peptide: KKLMTFFVKLSLFTER
Regarding B50, the ELISA signal stood at 384.

B51: P28R F6M (peptide)
peptide: KKLDTMFVKLSLFTER
For B51, the ELISA signal is 467.

B52: P28R D4T (peptide)
peptide: KKLTTFFVKLSLFTER
Take B52: the ELISA signal was found to be 405.

B53: P28R F6T (peptide)
peptide: KKLDTTFVKLSLFTER
As to B53, the ELISA signal is 481.

B54: P28R F6R (peptide)
peptide: KKLDTRFVKLSLFTER
As to B54, the ELISA signal was 309.

B55: P28R D4V (peptide)
peptide: KKLVTFFVKLSLFTER
Consider B55, for which the ELISA signal was 424.

B56: P28R F7W (peptide)
peptide: KKLDTFWVKLSLFTER
Molecule B56 came in with an ELISA signal of 380.

B57: P28R E15T (peptide)
peptide: KKLDTFFVKLSLFTTR
Consider B57, for which the ELISA signal was 152.

B58: P28R E15M (peptide)
peptide: KKLDTFFVKLSLFTMR
B58 displayed an ELISA signal of 247.

B59: P28R E15N (peptide)
peptide: KKLDTFFVKLSLFTNR
B59 had an ELISA signal of 161.

B60: P28R F7Y (peptide)
peptide: KKLDTFYVKLSLFTER
The molecule B60 had an ELISA signal of 334.

B61: P28R D4W (peptide)
peptide: KKLWTFFVKLSLFTER
B61 registered an ELISA signal of 443.

B62: P28R F6E (peptide)
peptide: KKLDTEFVKLSLFTER
In turn, B62 came in with an ELISA signal of 229.

B63: P28R D4Q (peptide)
peptide: KKLQTFFVKLSLFTER
B63 displayed an ELISA signal of 345.

B64: P28R E15Y (peptide)
peptide: KKLDTFFVKLSLFTYR
B64 came in with an ELISA signal of 340.

B65: P28R F7D (peptide)
peptide: KKLDTFDVKLSLFTER
Molecule B65 registered an ELISA signal of 301.
